Measurements reported in article PMC11834968 (RSC Chemical Biology, 2025).
Values belong to the binder of their own block, whether it stands above or below them.

How the values were obtained:
[1] = biological target: Human recombinant fibroblast activation protein alpha (human, UniProt Q12884, glycosylated (sites not given)); assay: cross-linking + other: mass photometry
[2] = biological target: Biotinylated dipeptidyl peptidase IV (DPP4) (Homo sapiens, UniProt P27487, biotin (site not given)); assay: BLI
Sequence of Biotinylated dipeptidyl peptidase IV (DPP4) (P27487 39-766): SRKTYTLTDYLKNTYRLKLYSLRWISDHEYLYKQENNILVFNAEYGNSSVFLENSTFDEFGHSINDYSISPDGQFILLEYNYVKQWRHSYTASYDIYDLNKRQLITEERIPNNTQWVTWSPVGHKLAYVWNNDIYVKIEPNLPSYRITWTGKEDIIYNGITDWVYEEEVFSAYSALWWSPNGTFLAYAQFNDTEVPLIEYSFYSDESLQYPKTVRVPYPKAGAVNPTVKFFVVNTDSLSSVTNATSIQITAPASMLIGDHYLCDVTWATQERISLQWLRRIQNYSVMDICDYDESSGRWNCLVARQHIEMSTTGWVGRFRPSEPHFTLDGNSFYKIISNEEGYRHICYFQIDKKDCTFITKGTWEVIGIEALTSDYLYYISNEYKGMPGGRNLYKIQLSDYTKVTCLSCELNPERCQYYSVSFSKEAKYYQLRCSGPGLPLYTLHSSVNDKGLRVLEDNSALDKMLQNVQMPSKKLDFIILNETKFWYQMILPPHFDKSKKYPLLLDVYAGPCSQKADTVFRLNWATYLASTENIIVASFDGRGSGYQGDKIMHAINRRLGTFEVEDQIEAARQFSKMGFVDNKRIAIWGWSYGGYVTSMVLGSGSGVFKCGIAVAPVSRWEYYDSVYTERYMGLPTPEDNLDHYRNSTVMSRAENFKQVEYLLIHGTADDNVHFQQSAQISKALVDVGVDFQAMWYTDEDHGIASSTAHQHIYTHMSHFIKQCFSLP

Sequence of Human recombinant fibroblast activation protein alpha (Q12884 27-760): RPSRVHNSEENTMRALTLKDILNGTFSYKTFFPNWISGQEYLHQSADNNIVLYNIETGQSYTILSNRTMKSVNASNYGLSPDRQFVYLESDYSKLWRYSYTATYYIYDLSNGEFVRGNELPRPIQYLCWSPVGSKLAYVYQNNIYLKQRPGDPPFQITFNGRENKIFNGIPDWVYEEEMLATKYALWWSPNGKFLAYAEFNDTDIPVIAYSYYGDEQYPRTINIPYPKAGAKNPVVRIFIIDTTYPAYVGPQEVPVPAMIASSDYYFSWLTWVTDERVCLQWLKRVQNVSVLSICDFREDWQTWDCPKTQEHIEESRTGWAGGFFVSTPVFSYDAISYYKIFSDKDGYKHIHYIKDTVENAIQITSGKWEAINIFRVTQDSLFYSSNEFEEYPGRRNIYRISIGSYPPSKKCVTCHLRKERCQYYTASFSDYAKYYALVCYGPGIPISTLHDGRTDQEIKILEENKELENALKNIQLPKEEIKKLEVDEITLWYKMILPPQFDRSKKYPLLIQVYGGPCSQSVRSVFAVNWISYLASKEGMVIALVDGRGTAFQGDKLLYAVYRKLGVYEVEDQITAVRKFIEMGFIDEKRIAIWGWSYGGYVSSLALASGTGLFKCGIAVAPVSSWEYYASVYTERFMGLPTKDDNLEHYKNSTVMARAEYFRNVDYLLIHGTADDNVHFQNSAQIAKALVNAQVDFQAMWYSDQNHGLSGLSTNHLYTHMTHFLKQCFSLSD

stoichiometry N [1]: 1
B1: SUMO-I3 (single domain antibody I3 fused to an N-terminal 6X His-SUMO-FLAG tag) (VHH)
VHH: EVQLVESGGGLVQPGGSLRLSCAASGFTFSSYAMSWVRQAPGKGLEWVSAINSGGGSTSYADSVKGRFTISRDNAKNTLYLQMNSLKPEDTAVYYCAKARTGWSLAVPSFGSWGQGTQVTVSS

binding result [2]: no binding
B2: MBP-I3 (single domain antibody I3 with N-terminal MBP fusion and C-terminal 6X His-tag) (VHH)
VHH: B1 VHH
